Measured values as given in US20250011363A1, “OPTIMIZED SHORTENED PEPTIDE THAT BINDS TO ACETYLCHOLINE RECEPTOR, AND USE THEREOF” (SKINMED CO., LTD., priority 2021, published 2025).

Target: acetylcholine receptor (Homo sapiens, UniProt P02708)
Test: SPR binding affinity (RU) of optimized 5mer/6mer/7mer peptides, Examples 6-7
Conditions: SPR, peptides tested at 10 μM; 5mer Top sequence
Method: Based on the frequencies of occurrence of the top 7 amino acids from Table 7 in Example 5, 600 peptides comprising these amino acids (top combinations) and those comprising the 13 less frequently occurring amino acids (bottom combinations) were synthesized for each series of 5mer, 6mer-1, and 6mer-2. The binding affinity of each sequence for the acetylcholine receptor was measured using Surface Plasmon Resonance (SPR) analysis method. The peptides were tested at a concentration of 10 μM. Additionally, the average binding affinities of the top and bottom combinations in each series are depicted in FIGS. 5-7.
Representative peptides identified in Example 6, two in each library, including 5mers (73, 311) and 6mers-1 (43, 210) and 6mers-2 (136, 233), were compared with the pre-optimized 6mer, 5mer-ND, and Synake.

Chain of acetylcholine receptor (P02708 21-457): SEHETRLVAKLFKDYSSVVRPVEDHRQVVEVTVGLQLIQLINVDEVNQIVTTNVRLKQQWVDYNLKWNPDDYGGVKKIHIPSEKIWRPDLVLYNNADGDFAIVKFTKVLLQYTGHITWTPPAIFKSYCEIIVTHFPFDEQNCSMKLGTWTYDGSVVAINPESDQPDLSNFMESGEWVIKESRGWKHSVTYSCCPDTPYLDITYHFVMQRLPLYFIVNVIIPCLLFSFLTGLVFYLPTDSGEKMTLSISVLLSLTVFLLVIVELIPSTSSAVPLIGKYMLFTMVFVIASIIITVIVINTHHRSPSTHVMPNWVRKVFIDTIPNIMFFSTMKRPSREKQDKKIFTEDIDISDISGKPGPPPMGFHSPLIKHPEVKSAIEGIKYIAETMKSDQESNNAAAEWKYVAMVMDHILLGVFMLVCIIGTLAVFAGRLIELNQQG

Row | Substance | Binding affinity
1 | 5mer-173 (RSVSR) | 59 Ru
2 | 5mer-174 (KGRQR) | 59 Ru
3 | 5mer-175 (RWQLK) | 63 Ru
4 | 5mer-176 (RVLYK) | 52 Ru
5 | 5mer-177 (RWVRK) | 77 Ru
6 | 5mer-178 (RRVLK) | 87 Ru
7 | 5mer-179 (RLYTK) | 55 Ru
8 | 5mer-180 (KQRYR) | 74 Ru
9 | 5mer-181 (RSLLK) | 72 Ru
10 | 5mer-182 (RVLSK) | 70 Ru
11 | 5mer-183 (KRVYR) | 64 Ru
12 | 5mer-184 (KLQCR) | 68 Ru
13 | 5mer-185 (RRYRR) | 86 Ru
14 | 5mer-186 (KRLQR) | 64 Ru
15 | 5mer-187 (RWVCR) | 74 Ru
16 | 5mer-188 (KWFSK) | 82 Ru
17 | 5mer-189 (RLLQK) | 65 Ru
18 | 5mer-190 (RWRSR) | 84 Ru
19 | 5mer-191 (RVRCR) | 75 Ru
20 | 5mer-192 (KSFRK) | 75 Ru

Row | Substance | Binding affinity
21 | 5mer-193 (RVIRK) | 80 Ru
22 | 5mer-194 (KWQSK) | 84 Ru
23 | 5mer-195 (KVVSR) | 82 Ru
24 | 5mer-196 (RSYYR) | 69 Ru
25 | 5mer-197 (RSRQK) | 68 Ru
26 | 5mer-198 (KLISR) | 74 Ru
27 | 5mer-199 (KRYQR) | 84 Ru
28 | 5mer-200 (KRVRR) | 55 Ru
29 | 5mer-201 (RWIYR) | 62 Ru
30 | 5mer-202 (KWYRR) | 65 Ru
31 | 5mer-203 (RQLTR) | 78 Ru
32 | 5mer-204 (RQFQR) | 84 Ru
33 | 5mer-205 (RWYYR) | 75 Ru
34 | 5mer-206 (KLQLR) | 57 Ru
35 | 5mer-207 (KQVRR) | 72 Ru
36 | 5mer-208 (KLICR) | 80 Ru
37 | 5mer-209 (RGVRR) | 78 Ru
38 | 5mer-210 (KVYYR) | 67 Ru
39 | 5mer-211 (RLYYR) | 73 Ru

Same assay, conditions: SPR, peptides tested at 10 μM; 5mer Top sequence (top combinations)

Row | Substance | Binding affinity
40 | 5mer-212 (KQQYK) | 64 Ru
41 | 5mer-213 (RQYTK) | 83 Ru
42 | 5mer-214 (KQQCK) | 79 Ru
43 | 5mer-215 (RQYRR) | 79 Ru
44 | 5mer-216 (KWVRR) | 56 Ru
45 | 5mer-217 (KLQRR) | 72 Ru
46 | 5mer-218 (KVQYK) | 80 Ru
47 | 5mer-219 (KQYTR) | 55 Ru
48 | 5mer-220 (KRILR) | 81 Ru
49 | 5mer-221 (RGRTR) | 58 Ru
50 | 5mer-222 (KWLLR) | 86 Ru
51 | 5mer-223 (KQVRK) | 61 Ru
52 | 5mer-224 (RLQRR) | 67 Ru
53 | 5mer-225 (KRQQK) | 51 Ru
54 | 5mer-226 (RRYTR) | 60 Ru
55 | 5mer-227 (RRQQR) | 84 Ru
56 | 5mer-228 (KRFLK) | 53 Ru
57 | 5mer-229 (KGLTR) | 84 Ru
58 | 5mer-230 (KVLCR) | 67 Ru
59 | 5mer-231 (KGLLK) | 60 Ru
60 | 5mer-232 (KWYTR) | 71 Ru
61 | 5mer-233 (RVYYK) | 84 Ru
62 | 5mer-234 (RQYCR) | 62 Ru

Row | Substance | Binding affinity
63 | 5mer-235 (KGYSK) | 70 Ru
64 | 5mer-236 (KRRCK) | 81 Ru
65 | 5mer-237 (RGLRK) | 77 Ru
66 | 5mer-238 (KQVLK) | 58 Ru
67 | 5mer-239 (KRLYR) | 61 Ru
68 | 5mer-240 (KWRYR) | 51 Ru
69 | 5mer-241 (KVRCR) | 51 Ru
70 | 5mer-242 (RGYTK) | 64 Ru
71 | 5mer-243 (KLLSK) | 51 Ru
72 | 5mer-244 (KSVSK) | 78 Ru
73 | 5mer-245 (RQRSK) | 62 Ru
74 | 5mer-246 (KSFTR) | 60 Ru
75 | 5mer-247 (RWYCR) | 80 Ru
76 | 5mer-248 (RWYLK) | 63 Ru
77 | 5mer-249 (RSYCR) | 52 Ru
78 | 5mer-250 (RQFSR) | 76 Ru
79 | 5mer-251 (KRISK) | 70 Ru
80 | 5mer-252 (KQYRK) | 53 Ru
81 | 5mer-253 (RSLYR) | 75 Ru
82 | 5mer-254 (KLLRK) | 87 Ru
83 | 5mer-255 (KQRTR) | 82 Ru
84 | 5mer-256 (RGVCK) | 60 Ru
85 | 5mer-257 (RQFTR) | 85 Ru

Row | Substance | Binding affinity
86 | 5mer-258 (KRQYK) | 84 Ru
87 | 5mer-259 (RLIRK) | 71 Ru
88 | 5mer-260 (KVYRR) | 57 Ru
89 | 5mer-261 (RRVLR) | 59 Ru
90 | 5mer-262 (KSRCR) | 59 Ru
91 | 5mer-263 (KQVTR) | 80 Ru
92 | 5mer-264 (KWYRK) | 50 Ru
93 | 5mer-265 (RWQCR) | 77 Ru
94 | 5mer-266 (KSYQK) | 66 Ru
95 | 5mer-267 (KRLLK) | 66 Ru
96 | 5mer-268 (KRYCK) | 54 Ru
97 | 5mer-269 (RLFLR) | 85 Ru
98 | 5mer-270 (RSQQR) | 52 Ru
99 | 5mer-271 (RGRYR) | 68 Ru
100 | 5mer-272 (KGYQR) | 83 Ru
101 | 5mer-273 (RVQSK) | 82 Ru
102 | 5mer-274 (RQVRK) | 62 Ru
103 | 5mer-275 (KVYTR) | 64 Ru
104 | 5mer-276 (RSLRR) | 70 Ru
105 | 5mer-277 (RVFTR) | 82 Ru
106 | 5mer-278 (RWQRR) | 66 Ru
107 | 5mer-279 (RVVTK) | 56 Ru
108 | 5mer-280 (KWILK) | 53 Ru

Row | Substance | Binding affinity
109 | 5mer-281 (RGFLK) | 58 Ru
110 | 5mer-282 (RVLTR) | 77 Ru
111 | 5mer-283 (KWVYK) | 51 Ru
112 | 5mer-284 (KQVQR) | 52 Ru
113 | 5mer-285 (KGQLK) | 75 Ru
114 | 5mer-286 (RWFQK) | 71 Ru
115 | 5mer-287 (KRYRR) | 68 Ru
116 | 5mer-288 (KLILK) | 73 Ru
117 | 5mer-289 (RRQYR) | 87 Ru
118 | 5mer-290 (RGYYR) | 57 Ru
119 | 5mer-291 (RWFTR) | 72 Ru
120 | 5mer-292 (KLVCK) | 59 Ru
121 | 5mer-293 (RQYYR) | 83 Ru
122 | 5mer-294 (KQYYK) | 50 Ru
123 | 5mer-295 (RGRCR) | 52 Ru
124 | 5mer-296 (KWISK) | 55 Ru
125 | 5mer-297 (RSLRK) | 81 Ru
126 | 5mer-298 (KSIYR) | 75 Ru
127 | 5mer-299 (KGRRK) | 62 Ru
128 | 5mer-300 (RQYRK) | 81 Ru
